This note sets out measurements from the supplement of paper PMC11246515.

A short description of the series: total protein half-life in vivo (active degradation + dilution); higher = more stable protein.
Setting [1] is: E. coli NCM3722 delta-clpP delta-lon delta-hslV, growth: N-lim chemostat, doubling time 6 h.
Setting [2] is: E. coli NCM3722 delta-clpP, growth: N-lim chemostat, doubling time 6 h.
Where [3] appears, read: E. coli NCM3722 delta-hslV, growth: N-lim chemostat, doubling time 6 h.
Where [4] appears, read: E. coli NCM3722 delta-lon, growth: N-lim chemostat, doubling time 6 h.
The mark [5] stands for this setting: E. coli NCM3722 delta-smpB, growth: N-lim chemostat, doubling time 6 h.
Setting [6] is: wild type E. coli NCM3722, growth: C-lim chemostat, doubling time 12 h.
Where [7] appears, read: wild type E. coli NCM3722, growth: N-lim chemostat, doubling time 6 h.
[8] abbreviates: wild type E. coli NCM3722, growth: N-lim chemostat, doubling time 12 h.
Setting [9] is: wild type E. coli NCM3722, growth: P-lim chemostat, doubling time 12 h.
The mark [10] stands for this setting: wild type E. coli NCM3722, growth: C-lim chemostat, doubling time 3 h.
Where [11] appears, read: wild type E. coli NCM3722, growth: C-lim chemostat, doubling time 6 h.
The mark [12] stands for this setting: wild type E. coli NCM3722, growth: P-lim chemostat, doubling time 6 h.

± gives the standard deviation of the averaged measurements.

For “MKICLIDETGTGDGALSVLAARWGLEHDEDNLMALVLTPEHLELRKRDEPKLGGIFVDFVGGAMAHRRKFGGGRGEAVAKAVGIKGDYLPDVVDATAGLGRDAFVLASVGCRVRMLERNPVVAALLDDGLARGYADAEIGGWLQERLQLIHASSLTALTDITPRPQVVYLDPMFPHKQKSALVKKEMRVFQSLVGPDLDADGLLEPARLLATKRVVVKRPDYAPPLANVATPNAVVTKGHRFDIYAGTPV”, the “total protein half-life in vivo” value under setting [1] amounted to 6.34 ± 1.2 h; the “total protein half-life in vivo” value under setting [2] is 5.05 ± 0.67 h; the “total protein half-life in vivo” value under setting [3] is 5.29 h; the “total protein half-life in vivo” value under setting [4] was 5.92 ± 0.037 h; the “total protein half-life in vivo” value under setting [5] came out at 5.27 ± 0.32 h; the “total protein half-life in vivo” value under setting [6] was 11.1 ± 1 h. Moreover, the “total protein half-life in vivo” value runs as follows: under setting [7], 5.3 ± 0.28 h; under setting [8], 11.5 ± 1.8 h; under setting [9], 12.9 ± 0.86 h.
As for “MYIGIDLGTSGVKVILLNEQGEVVAAQTEKLTVSRPHPLWSEQDPEQWWQATDRAMKALGDQHSLQDVKALGIAGQMHGATLLDAQQRVLRPAILWNDGRCAQECTLLEARVPQSRVITGNLMMPGFTAPKLLWVQRHEPEIFRQIDKVLLPKDYLRLRMTGEFASDMSDAAGTMWLDVAKRDWSDVMLQACDLSRDQMPALYEGSEITGALLPEVAKAWGMATVPVVAGGGDNAAGAVGVGMVDANQAMLSLGTSGVYFAVSEGFLSKPESAVHSFCHALPQRWHLMSVMLSAASCLDWAAKLTGLSNVPALIAAAQQADESAEPVWFLPYLSGERTPHNNPQAKGVFFGLTHQHGPNELARAVLEGVGYALADGMDVVHACGIKPQSVTLIGGGARSEYWRQMLADISGQQLDYRTGGDVGPALGAARLAQIAANPEKSLIELLPQLPLEQSHLPDAQRYAAYQPRRETFRRLYQQLLPLMA”, the “total protein half-life in vivo” value under setting [1] was determined as 5.25 ± 0.23 h; the “total protein half-life in vivo” value under setting [2] is 4.96 ± 0.27 h; the “total protein half-life in vivo” value under setting [3] was determined as 5.75 ± 1.6 h; the “total protein half-life in vivo” value under setting [4] turned out to be 4.82 ± 0.32 h; the “total protein half-life in vivo” value under setting [5] came to 4.5 ± 0.047 h; the “total protein half-life in vivo” value under setting [10] is 3.52 ± 0.21 h. Also, the “total protein half-life in vivo” value reads like this: under setting [11], 5.87 ± 0.13 h; under setting [6], 9.67 ± 1.8 h; under setting [7], 4.57 ± 0.12 h; under setting [8], 8 ± 1.8 h; under setting [12], 6.62 ± 0.53 h; under setting [9], 12.5 ± 0.58 h.
On to “MQKDALNNVHITDEQVLMTPEQLKAAFPLSLQQEAQIADSRKSISDIIAGRDPRLLVVCGPCSIHDPETALEYARRFKALAAEVSDSLYLVMRVYFEKPRTTVGWKGLINDPHMDGSFDVEAGLQIARKLLLELVNMGLPLATEALDPNSPQYLGDLFSWSAIGARTTESQTHREMASGLSMPVGFKNGTDGSLATAINAMRAAAQPHRFVGINQAGQVALLQTQGNPDGHVILRGGKAPNYSPADVAQCEKEMEQAGLRPSLMVDCSHGNSNKDYRRQPAVAESVVAQIKDGNRSIIGLMIESNIHEGNQSSEQPRSEMKYGVSVTDACISWEMTDALLREIHQDLNGQLTARVA”, for which the “total protein half-life in vivo” value turned out to be 3.13 ± 0.21 h under setting [1]; 1.05 ± 0.12 h under setting [2]; 0.859 ± 0.25 h under setting [3]; 3.06 ± 3 h under setting [4]; 0.903 ± 0.017 h under setting [5]; 2.24 ± 0.07 h under setting [10]. Further, the “total protein half-life in vivo” value stood at 2.79 ± 0.37 h under setting [11]; 3.84 ± 0.57 h under setting [6]; 0.94 h under setting [7]; 1.81 h under setting [8]; 1.57 h under setting [12]; 3.5 ± 0.6 h under setting [9].
In the case of “MKFKVIALAALMGISGMAAQANELPDGPHIVTSGTASVDAVPDIATLAIEVNVAAKDAATAKKQADERVAQYISFLELNQIAKKDISSANLRTQPDYDYQDGKSILKGYRAVRTVEVTLRQLDKLNSLLDGALKAGLNEIRSVSLGVAQPDAYKDKARKAAIDNAIHQAQELANGFHRKLGPVYSVRYHVSNYQPSPMVRMMKADAAPVSAQETYEQAAIQFDDQVDVVFQLEPVDQQPAKTPAAQ [P0ADS6]”, the “total protein half-life in vivo” value under setting [1] was determined as 6.45 ± 0.46 h; the “total protein half-life in vivo” value under setting [2] was 6.67 ± 0.7 h; the “total protein half-life in vivo” value under setting [4] turned out to be 6.77 ± 1.2 h; the “total protein half-life in vivo” value under setting [5] was found to be 5.98 ± 0.096 h; the “total protein half-life in vivo” value under setting [10] was found to be 3.2 ± 0.14 h; the “total protein half-life in vivo” value under setting [11] came out at 5.88 ± 0.43 h. The “total protein half-life in vivo” value by setting is: under setting [6], 12.1 ± 1.4 h; under setting [7], 5.83 ± 0.65 h; under setting [8], 12.1 ± 1.2 h; under setting [12], 5.59 ± 0.14 h; under setting [9], 11.7 ± 0.76 h.
“MNEHHQPFEEIKLINANGAEQWSARQLGKLLGYSEYRHFIPVLTRAKEACENSGHTIDDHFEEILDMVKIGSNAKRALKDIVLSRYACYLVVQNGDPAKPVIAAGQTYFAIQTRRQELADDEAFKQLREDEKRLFLRNELKEHNKQLVEAAQQAGVATATDFAIFQNHGYQGLYGGLDQKAIHQRKGLKKNQKILDHMGSTELAANLFRATQTEEKLKRDGVNSKQQANTTHFDVGRKVRQTIQELGGTMPEELPTPQVSIKQLENSVKITEKK”: the “total protein half-life in vivo” value by setting is: under setting [10], 2.12 h; under setting [11], 3.02 h; under setting [6], 5.87 h.
